From patent US20240101663A1 (BIOTROY THERAPEUTICS, published 2024)

B1: CCDC112 recombinant protein (coiled-coil domain-containing protein 112) (ligand)
chain: MEKDKHSHFYNQKSDFRIEHSMLEELENKLIHSRKTERAKIQQQLAKIHNNVKKLQHQLKDVKPTPDFVEKLREMMEEIENAINTFKEEQRLIYEELIKEEKTTNNELSAISRKIDTWALGNSETEKAFRAISSKVPVDKVTPSTLPEEVLDFEKFLQQTGGRQGAWDDYDHQNFVKVRNKHKGKPTFMEEVLEHLPGKTQDEVQQHEKWYQKFLALEERKKESIQIWKTKKQQKREEIFKLKEKADNTPVLFHNKQEDNQKQKEEQRKKQKLAVEAWKKQKSIEMSMKCASQLKEEEEKEKKHQKERQRQFKLKLLLESYTQQKKEQEEFLRLEKEIREKAEKAEKRKNAADEISRFQERDLHKLELKILDRQAKEDEKSQKQRRLAKLKEKVENNVSRDPSRLYKPTKGWEERTKKIGPTGSGPLLHIPHRAIPTWRQGIQRRV
notes: also called CCDC112 protein; full-length CCDC112 protein
B2: monoclonal antibody S-78-02 (antibody, V domains shown)
VH: QVQLQQSGPELVKPGASVKIPCKTSGYSFTDYNIDWVKQGLGESLEWIGDINPNYGGTMYNQKFKGKATLTVDKSSNTAYMELRSLTSEDTAVYYCAHDEFIYWGQGTLVTVSA
VL: DIQMNQSPSSMFASLGERVTITCRASQDINTYLSWIQRKPGKSPKTLIYRANRLVDGVPSRFSGSGSGQDYSLTISSLEYEDMGIYYCLQYDEFPHTFGGGTKLEIK
notes: Mouse hybridoma monoclonal antibody raised against CCDC112 protein and detected with an anti-mouse secondary antibody; also called CCDC112 antibody; CCDC112 monoclonal antibody

How the values were obtained:
[1] = biological target: T1, CD30 extracellular region protein fragment labeled with hFc (UniProt P28908 19-385); assay: ELISA at pH 7, coated CCDC112 gradient, CD30-hFc 0.5 µg/mL; value lies above the highest concentration shown, curve has no plateau; table gives no unit, unit from the x axis; target from the plot title (legend names LTBR)
T1 construct: extracellular domain; Bought from ACRO Biosystems or Sino Biological; not shown: human Fc label (hFc)
T1 sequence (looked up): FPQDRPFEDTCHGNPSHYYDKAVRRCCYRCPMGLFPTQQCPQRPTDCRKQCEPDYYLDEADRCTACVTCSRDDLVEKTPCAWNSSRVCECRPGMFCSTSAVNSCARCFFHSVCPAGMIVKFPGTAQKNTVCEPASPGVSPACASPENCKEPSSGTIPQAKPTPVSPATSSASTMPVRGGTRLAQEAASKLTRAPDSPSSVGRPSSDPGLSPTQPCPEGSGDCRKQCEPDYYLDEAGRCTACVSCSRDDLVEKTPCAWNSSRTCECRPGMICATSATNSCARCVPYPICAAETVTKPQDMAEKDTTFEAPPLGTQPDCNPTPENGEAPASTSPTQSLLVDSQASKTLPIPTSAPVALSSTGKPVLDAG
Method: (§1) Specifically, a special plate for ELISA (costar, ME, USA) was used. Firstly, different concentrations of CCDC112 recombinant proteins were dissolved in 100 μL of ELISA coating solution (Solarbio, Beijing, China) to coat the plate, and the negative control was coated with 100 μL of coating solution without protein. The plate was coated overnight at 4° C. After washing with PBST, 100 μL of 5% BSA dissolved in PBS (VWR, PA, USA) was used for blocking in the incubator at 37° C. for 90 min. […] The above-mentioned receptor protein was labeled with hFc (P-Fc) and binding was carried out in the incubator at 37° C. for 60 min. After washing with PBST, a specific anti-human Fc fragment antibody (Abcam, MA, USA) diluted in PBS was used for incubation and binding at 37° C. for 30 min. After washing with PBST, chromogenic solution (Sangon, Shanghai, China) was added at 100 μL per well for color development and reacted in an incubator for 5-30 min, and then 50 μL of stop solution (Sangon, Shanghai, China) was added, and chromogenic reading was then carried out under a microplate reader (Thermo Fisher, MA, USA) at 450 nm.

[2] = biological target: T2, LTBR-hFc (LTBR extracellular region protein fragment labeled with hFc) (UniProt P36941 31-227); assay: ELISA at pH 6.5, coated CCDC112 gradient, LTBR-hFc 0.5 µg/mL; table gives no unit, unit from the x axis; target from the plot title (legend names CD30)
T2 construct: extracellular domain; Bought from ACRO Biosystems or Sino Biological; also called lymphotoxin-beta receptor; TNFRSF3
T2 sequence (P36941 31-227): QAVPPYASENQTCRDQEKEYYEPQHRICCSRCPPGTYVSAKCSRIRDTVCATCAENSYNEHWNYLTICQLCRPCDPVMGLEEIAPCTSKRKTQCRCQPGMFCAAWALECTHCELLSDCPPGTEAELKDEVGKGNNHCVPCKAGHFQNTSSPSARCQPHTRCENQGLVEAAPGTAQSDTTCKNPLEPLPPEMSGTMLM
Method: as §1

[3] = biological target: T1, CD30 extracellular region protein …; assay: ELISA at pH 5.5, coated CCDC112 gradient, CD30-hFc 0.5 µg/mL; table gives no unit, unit from the x axis; target from the plot title (legend names LTBR)
Method: as §1

[4] = biological target: T2, LTBR-hFc (LTBR extracellular region …); assay: ELISA at pH 5.5, coated CCDC112 gradient, LTBR-hFc 0.5 µg/mL; table gives no unit, unit from the x axis; target from the plot title (legend names CD30)
Method: as §1

[5] = biological target: T1, CD30 extracellular region protein …; assay: ELISA at pH 6, coated CCDC112 gradient, CD30-hFc 0.5 µg/mL; table gives no unit, unit from the x axis; target from the plot title (legend names LTBR)
Method: as §1

[6] = biological target: T1, CD30 extracellular region protein …; assay: ELISA at pH 6.5, coated CCDC112 gradient, CD30-hFc 0.5 µg/mL; table gives no unit, unit from the x axis; target from the plot title (legend names LTBR)
Method: as §1

[7] = biological target: T2, LTBR-hFc (LTBR extracellular region …); assay: ELISA at pH 7.5, coated CCDC112 gradient, LTBR-hFc 0.5 µg/mL; ambiguous fit far outside the range shown, curve nearly flat; table gives no unit, unit from the x axis; target from the plot title (legend names CD30)
Method: as §1

[8] = biological target: T2, LTBR-hFc (LTBR extracellular region …); assay: ELISA at pH 6, coated CCDC112 gradient, LTBR-hFc 0.5 µg/mL; table gives no unit, unit from the x axis; target from the plot title (legend names CD30)
Method: as §1

[9] = biological target: T3, CCDC112 on HCT116 tumor cells (including HCT116 cells stably overexpressing CCDC112) (human, UniProt Q8NEF3 1-446); assay: flow cytometry on HCT116 cells overexpressing CCDC112; table gives no unit, unit from the x axis 'Abs conc. nM'
T3 construct: also called CCDC112 on the surface of tumor cells; HCT116-CCDC112
T3 sequence: B1 chain
Method: Further, the specific binding of the CCDC112 antibody to the antigen was verified by flow cytometry. The HCT116 cell line overexpressing CCDC112 was constructed by stable transfection of liposome, and the cells and the CCDC112 antibody were co-incubated, the unbound antibody was washed away, and then the anti-mouse secondary antibody (FITC modified) was used for flow cytometry and the percentage of cells that stain positive was analyzed.

[10] = biological target: B1; assay: bio-layer interferometry (ProbeLife Gator), antibody (200 nM) immobilized, antigen 15 nM to 1.875 nM
Method: The dissociation constant (KD) of the antibody of the invention binding to human CCDC112 was determined using bio-layer interferometry on ProbeLife Gator according to conventional procedures.

[11] = biological target: B1; assay: ELISA, coated full-length CCDC112 protein, antibody titrated; table gives no unit, unit from the x axis Ab(nM)

Binder | EC50 [1] | EC50 [2] | EC50 [3] | EC50 [4] | EC50 [5] | EC50 [6] | EC50 [7] | EC50 [8] | EC50 [9] | Kd [10] | EC50 [11]
B1 | 16.1 µg/mL | 1.94 µg/mL | 2.11 µg/mL | 0.922 µg/mL | 1.91 µg/mL | 4.61 µg/mL | ~18100 µg/mL | 1.26 µg/mL |  |  | 
B2 |  |  |  |  |  |  |  |  | 980 pM | 468 pM | 64.4 pM
